Source: the supplement of paper PMC9170038

System: MS2 coat protein
Test: apparent KD of MS2 coat protein; higher = weaker reporter binding
Conditions: Eterna round: R107
Method in brief: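 Apparent KD per design is the median of normalised cluster binding-curve fits. Designed RNA switches transcribed on-chip from Illumina sequencing clusters were titrated with SNAP-549-labelled MS2 coat protein in twofold steps from 0.7 or 1.5 nM to 3 µM, with 0.8–1.5 h down to 10–20 min per step. Buffer: 100 mM Tris-HCl pH 7.5, 80 mM KCl, 4 mM MgCl2, without or with constant ligand.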

[1] = input ligand: theophylline 20 uM
[2] = input ligand: theophylline 2 mM
[3] = input ligand: tryptophan 2.4 mM

Row | Sequence | apparent KD of MS2 coat protein (input ligand: arginine 13.2 mM) [µM] | apparent KD of MS2 coat protein [1] [µM] | apparent KD of MS2 coat protein [2] [µM] | apparent KD of MS2 coat protein (input ligand: none) [µM] | apparent KD of MS2 coat protein [3] [µM]
1 | UUCUUUAAGUCGGCCGCCACUGAAACAUGAGGAUCACCCAUGUAAAUUUGGGAGUAGGUAUAUUACAGGACCGGGACUAUAGUAA [JR_ExcTryptoB_Sub021] | 0.0292 | 0.0312 | 0.0273 |  | 
2 | UUGUGUUUAUUGGUUUAGCUAUUAUGGUUGCGAGGACCGGUACGGCCGCCACUCGAUGGAACAUGAGGAUCACCCAUGUGAGGAA [JR_ExcTryptoA_Sub013] | 0.0147 | 0.0318 | 0.0339 | 0.028 | 0.0221
3 | AGAAGUCCAGACUACACGUGGAAAAGCGAUACCAGACUCAUAGGUGUCCCUUGGCAGCGCGUAACAUGAGGAUCACCCAUGUGAU [theeternabot_exclusion_MS2_Theo_A_9] | 0.0668 | 0.19 |  |  | 0.133
4 | UGAUGGAACGGAAGGAGCGUGUAAGAACAAGAACAUGAGGAUCACCCAUGUAUUAAUUUAACACAGGUAGGUCGCCGAGUUAUUG [11.F] | 0.00942 | 0.0421 | 0.0286 | 0.0169 | 0.0159
5 | AUGGCGUUGGUGGAGCGGUGAAAUGGCGAUACCAGCGUGGAAACACGCCCUUGGCAGCGCCAAAACAUGAGGAUCACCCAUGUUA [Usti] | 0.0189 | 0.046 | 0.0598 | 0.0203 | 0.0181
6 | GCGCUAUUUAUUGAUACCAGAUACAGGAAUCACAUGAGGAUCACCCAUGUGGAAUGAAGGAUCCCUUGGCAGCAAUAGUCAAAAU [theeternabot_sameState_MS2_Theo_B_9] | 0.0166 | 0.0196 |  |  | 0.0199
7 | ACAUGAGGAUCACCCAUGUGGCGAGUUGAUACCAGACCCGCACUAGUCCCUUGGCAGCAACUACGUGUGGGACACCCAUGUUAAG [qpqmullin] | 0.0351 | 0.0762 | 0.0771 | 0.0576 | 0.0395
8 | AUCUCGUUCAAUAUACCGCCUUGACUAGAUACCAGCAUGGACCCAUGCCCUUGGCAGCUGGACAUGAGGAUCACCCAUGUUUCAG [SSTheo A #27] | 0.0107 | 0.0148 |  |  | 0.0108
9 | UGUGCAUGAGUUGGAAAAGCUCAUGGGCAUCGAGGACCGGUACGGCCGCCACUCGGCUGUACAUGAGGAUCACCCAUGUCAGGGU [#1 Same State - Tryptophan A Attempt #23 (HarryS)] | 0.082 | 0.141 | 0.17 | 0.288 | 0.891
10 | UGUAAAAUAACAGAUACCAGCGUGUUAUAAAACAUGAGGAUCACCCAUGUAGUGAUCAAGCGCCCUUGGCAGCUGGUAUUUUAUG [7.D] | 0.105 | 0.171 |  |  | 0.14
11 | AAGUGGCACGGAAGGAGCGAGUUUGCCUAUUACAUGAGGAUCACCCAUGUGGGUAAUGGGACUCAGGUAGGUCGCCGUUGUCACU [Same State Arginine B GF 26] | 0.0295 | 0.0485 | 0.042 | 0.0568 | 0.0463
12 | AAACGUUGCUGCGAUACCAGACAUGAGGAUCACCCAUGUACCAAGGUAACCGAAAGGCAUGUCCCUUGGCAGCGCAGCAACGAAA [MAT - Exclusion Theophlline B - Mod of Eli - D17] | 0.0148 | 0.0189 | 0.262 | 0.0111 | 0.0135
13 | ACAUGAGGAUCACCCAUGUAUCAACGGGAAGGAGCGCCAAACAAGGCAGGUAGGUCGCCCACAUGAGGAUCACCCGUGUGUUGGG [Exclusion Arginine A GF 30] | 0.0231 | 0.0585 | 0.0439 | 0.0378 | 0.0384
14 | ACACAUGAGGAUCACCCAUGUCCAAUAGAUACCAGUGAUACAGUGCACCCUUGGCAGCUGUUACUGAGUAAUGGUUCCCUCGGAA [Same State Theophylline A GF2] | 0.0268 | 0.0486 |  |  | 0.0375
15 | UAAAUAAUCUGGGUGUAGGUAAUAACAGAUACCAGCCAGAUAACUGGCCCUUGGCAGCUGAAAACAUGAGGAUCACCCAUGUAAA [Mat - Same State Theophlline A - Mod of Eli - D19] | 0.0583 | 0.129 | 0.0846 | 0.0806 | 0.0574
16 | ACAUGAGGAUCACCCAUGUAUUACCGGGAAGGAGCGCGUAAGGACGCAGGUAGGUCGCUCGGCGUCUGGCCGCAAGGCUGGACGA [#1 Same State - Arginine A Attempt #18 (HarryS)] | 0.0126 | 0.0213 | 0.0152 | 0.0155 | 0.0159
17 | AGAUUCGACACGGCCGCCACUUGUGGUGGAGGGUCUUUAGUCACACAUGAGGAUCACCCAUGUACAAGGACCGGGUGUUGAGUCU [XTryp B #23] | 0.0191 | 0.0142 | 0.0254 | 0.0193 | 0.0363
18 | GCUUCACAUGAGGAUCACCCAUGUCCGGAUACCAGCUCUCCAGACAGCCCUUGGCAGCCGAGCGCCCGAUUAUAUACCCUAGGAG [theeternabot_sameState_MS2_Theo_A_28] | 0.0211 | 0.0537 |  |  | 0.0279
19 | AAGCUGACAAGAAGGUGUUCCUAAGCUGAUACCAGCCUGGAAACAGGCCCUUGGCAGCAGCACAUGAGGAUCACCCAUGUAAUAA [(T)'-(M)'-(T1)-(T2)-(M1)-(M2)_Design2(Mismatches)] | 0.101 | 0.172 |  |  | 0.115

Row | Sequence | apparent KD of MS2 coat protein (input ligand: arginine 13.2 mM) [µM] | apparent KD of MS2 coat protein [1] [µM] | apparent KD of MS2 coat protein [2] [µM] | apparent KD of MS2 coat protein (input ligand: none) [µM] | apparent KD of MS2 coat protein [3] [µM]
20 | UAUCGCGCGGCGGCCGCCACUAAUGGCAGAUCUGUCGACUAACAUGAGGAUCACCCAUGUCUAACUAGGACCGGGCCCAAGUUGU [theeternabot_sameState_MS2_Trp_B_7] | 0.0305 | 0.0662 | 0.059 |  | 
21 | UCGUUUUAGUCGGCCGCCACUGGUCUCAUGUUCAACAUGAGGAUCACCCAUGUAUCUUAUUUUAACAGGACCGGGACGUAAUAGA [#16 Exclusion Tryptophan B] | 0.0908 | 0.0882 | 0.14 |  | 
22 | AAUCAUGGAAACAUGACAUGAGGGUUGCUCCGAGGACCGGUACGGCCGCCACUCGCGAGGAGGCGGACAUGAGGAUCACCCAUGU [#05 Tryptophan A Same State] | 0.0403 | 0.28 | 0.328 | 0.252 | 0.0682
23 | GAUGAUAUUGCAGAUACCAGACACAUGAGGAUCACCCAUGUCGCUGGGUCGCUGGGUCGUGUCCCUUGGCAGCUGCGAUAUCAUC [Tibet] | 0.0163 | 0.0478 | 0.339 | 0.0203 | 0.0214
24 | GGCAGUCAUAGCAGGGCAAAUAUACUCGAAGGAGCGUCAUAGUAGGCAGGUAGGUCGCGAGACAUGAGGAUCACCCAUGUAGAGA [uuumullin] | 0.0261 | 0.046 | 0.066 | 0.0689 | 0.0493
25 | UCAUAAGUACCGGUCCUCAGAUCCUCAUGACGAGGACCGGUACGGCCGCCACUCGAAACAUGAGGAUCACCCAUGUAAUAAUACU [Brourdmod15] | 0.0225 | 0.0379 | 0.0319 |  | 
26 | AGAUUCGACACGGCCGCCACUCUACACGGAUUUCCGAGUGUCGAACAUGAGGAUCACCCAUGUGGGAGGACCGGGUGUUGAGUCU [XTryp B #11] | 0.164 | 0.704 | 0.944 |  | 
27 | AUAGUCUAGAGUGAUACCAGACAACAUGAGGAUCACCCAUGUAGCAUAUGGUUAUCAUGAGUCCCUUGGCAGCACGCAUGUAUAG [JR_ExcTheophyB_Sub012] | 0.0134 | 0.0199 |  |  | 0.0132
28 | UAAACUACACAUGAGGAUCACCCAUGUGGCCGAGGACCGGUACGGCCGCCACUCGUGUGUUAAUAAAAGAACUGCAAGGUUCUUC [Uslausce] | 0.0761 | 0.325 | 0.748 |  | 
29 | AACAUACAAUUUUAGGUGGAUAUAAGGCGGCGAGGACCGGUACGGCCGCCACUCGCGUACAUGAGGAUCACCCAUGUCUGAAGCU [Same State - Tryptophan A (Freestyle 6)] | 0.0128 | 0.0217 | 0.0273 | 0.0217 | 0.0214
30 | ACAUGAGGAUCACCCAUGUUCCUCAUUGAUACCAGUGAAUUUAGACGCCCUUGGCAGCGAGUUUAAGAAGAAGAAGUUUUUUUUU [6.C] | 0.124 | 0.819 |  |  | 0.875
31 | ACAUGAGGAUCACCCAUGUGCAUCACCCGACGAGGACCGGUACGGCCGCCACUCGGGUAUAUAUUUGCAUCGGGUGAUUUUACGU [#25 Tryptophan A Same State] | 0.0155 | 0.0595 | 0.0616 |  | 
32 | ACAUGAGGAUCACCCAUGUAAUUUACAGAAGGAGCGUGAUGGAUCACAGGUAGGUCGCUGUACUGCGAAAGCACUCUCAUGAAUA [JR_Nu_SSArginiA_Sub025] | 0.0186 | 0.0253 | 0.0197 | 0.0168 | 0.019
33 | AUGUCGUUGAAUACAGCGGCAUGGAGUGAUACCAGAAUGAUCAAAUUCCCUUGGCAGCAUGACAUGAGGAUCACCCAUGUUCGAU [SSTheo A #15] | 0.0343 | 0.0613 |  |  | 0.0775
34 | CACAUGAGGAUCACCCAUGUCUGAACUGAAGGAGCGCUAAACAAGGCAGGUAGGUCGCGGAAUCCUGUGUGCAUAUGCACACGGG [9.W] | 0.0306 | 0.027 | 0.0261 | 0.018 | 0.0215
35 | UUAAUCUUUAUUGAAAACAAUAAAGCAGAAGGAGCGUGAUAAAACACAGGUAGGUCGCUGAAGGGAACAUGAGGAUCACCCAUGU [AstrosSSArgA#13] | 0.0364 | 0.032 | 0.0351 | 0.0266 | 0.0241
36 | CACAUGAGGAUCACCCAUGUCUGAACUGAAGGAGCGCUAAAUAAGGCAGGUAGGUCGCGGAAUCCUGUGUGCAUAUGCACACGGG [9.X] | 0.0207 | 0.0305 | 0.0289 | 0.0226 | 0.0198
37 | GGCACAUAGUCGGCCGCCACUACGUGGAGAUCGGAGUACAUGAGGAUCACCCAUGUAUGGAAGGGUAGGACCGGGACUAUGUGCC [Horalka] | 0.0383 | 0.0385 | 0.123 | 0.0671 | 0.0187
38 | UGUAUGUGAUCUGAUACCAGUCCAACUGGUAAAGCAUGAGGAUCACCCAUGCAAAAUUGGGACCCUUGGCAGCAGAUCGCAUACU | 0.167 | 0.213 | 0.0281 | 0.264 | 0.267
